Measurements as given in patent US20250269018A1, “COMBINED CANCER THERAPY WITH AN EPITHELIAL CELL ADHESION MOLECULE (EPCAM) INHIBITOR AND A HEPATOCYTE GROWTH FACTOR RECEPTOR (HGFR) INHIBITOR” (ACADEMIA SINICA, priority 2021, published 2025).
Each block holds one molecule with its values, some of them ahead of it.

B2: EpEX-His (extracellular domain of EpCAM, His-tagged) (ligand)
chain: QEECVCENYKLAVNCFVNNNRQCQCTSVGAQNTVICSKLAAKCLVMKAEMNGSKLGRRAKPEGALQNNDGLYDPDCDESGLFKAKQCNGTSMCWCVNTAGVRRTDKDTEITCSERVRTYWIIIELKHKAREKPYDSKSLRTALQKEITTRYQLDPKFITSILYENNVITIDLVQNSSQKTQNDVDIADVAYYFEKDVKGESLFHSKKMDLTVNGEQLDLDPGQTLIYYVDEKAPEFSMQGLK
notes: It was made in Expi293 cells and purified on Ni-NTA; also called soluble EpEX; secreted EpEX; not shown: His tag
B7: EpCAM-V5 (full length, expressed in HEK293T cells) (other)
chain: QEECVCENYKLAVNCFVNNNRQCQCTSVGAQNTVICSKLAAKCLVMKAEMNGSKLGRRAKPEGALQNNDGLYDPDCDESGLFKAKQCNGTSMCWCVNTAGVRRTDKDTEITCSERVRTYWIIIELKHKAREKPYDSKSLRTALQKEITTRYQLDPKFITSILYENNVITIDLVQNSSQKTQNDVDIADVAYYFEKDVKGESLFHSKKMDLTVNGEQLDLDPGQTLIYYVDEKAPEFSMQGLKAGVIAVIVVVVIAVVAGIVVLVISRKKRMAKYEKAEIKEMGEMHRELNA
notes: also called exogenous EpCAM; not shown: V5 tag

Experiments:
[1] = molecular target: T1, HGFR-His recombinant protein (human, UniProt P08581 25-932); assay: ELISA, HGFR-His (2 µg/ml) on coated EpEX-Fc proteins (1 µg/ml) (FIG. 1H)
T1 construct: extracellular domain; also called HGFRECD-His recombinant protein; not shown: His tag

HGFR-Fc protein = molecular target: T2, HGFR-Fc protein (human, UniProt P08581 25-932); assay: ELISA, EpEX-His (2 µg/ml) on coated HGFR-Fc (1 µg/ml) (FIG. 6F)
T2 construct: not shown: Fc

[2] = molecular target: T3, HGFRECD-c-Myc (extracellular domain of HGFR with c-Myc tag, expressed in HEK293T cells) (UniProt P08581 25-932); assay: co-IP from transfected HEK293T cells (restated)
T3 construct: extracellular domain; also called HGFRECD-c-Myc-tag; not shown: c-Myc tag

[3] = molecular target: B2; assay: ELISA on coated EpEX-His (1 µg/ml) (FIG. 7A)
EpEX-His = molecular target: T4, EpEX-His (Homo sapiens, UniProt P16422); assay: ELISA binding to coated EpEX-His; conditions: EpEX-His 1 μg/ml coated; ELISA OD450; FIG. 7A
T4 construct: the soluble extracellular domain of EpCAM (EpEX); His; made in house; host or cells: Expi293
T4 sequence (P16422 24-265 limits assumed): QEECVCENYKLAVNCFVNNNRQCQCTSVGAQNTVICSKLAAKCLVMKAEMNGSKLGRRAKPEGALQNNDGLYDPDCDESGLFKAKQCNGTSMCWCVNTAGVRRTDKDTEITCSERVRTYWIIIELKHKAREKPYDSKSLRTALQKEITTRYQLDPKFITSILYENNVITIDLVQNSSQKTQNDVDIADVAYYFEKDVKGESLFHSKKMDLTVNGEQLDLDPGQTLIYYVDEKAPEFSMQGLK
Experimental: FIGS. 7A to 7G. EpAb2-6 binds EpEX and induces apoptosis by F(ab′)2 and inhibits regulated intramembrane proteolysis (RIP) activation and HGFR signaling. (FIG. 7A) Binding affinity of IgG EpAb2-6 (mouse) and F(ab′)2 to EpEX-His (1 μg/ml) coated overnight was checked using ELISA (OD450). (FIG. 7B) HCT116 cells were treated with 100 μg/ml control IgG, Fc, or F(ab′)2 of EpAb2-6 for 24 h. The apoptotic and necrotic cells were quantified by fluorescein annexin V-FITC/PI double labeling. (FIG. 7C) HCT116 and HT29 cells were treated with 10 μg/ml control IgG, MT201, humanized EpAb2-6 (hEpAb2-6) or mouse hybridoma EbAb2-6 (mEpAb2-6) for 24 h. The apoptotic and necrotic cells were quantified by fluorescein annexin V-FITC/PI double labeling. (FIG. 7D) HCT116 cells were treated with 10 μg/ml control IgG, MT201, hEpAb2-6 or mEpAb2-6 for 16 h, followed by treatment with EpEX-His (50 nM) for 15 min. Levels of phosphorylated HGFR, AKT, and ERK, and (FIG. 7E) RIP proteins ADAM17 and presenilin 2 were examined by Western blotting. Anti-EpCAM antibody and crizotinib coordinately induces apoptosis in colon cancer cells. (FIG. 7F) HCT116 and HT29 cells were treated with 10 μg/ml NMIgG or EpAb2-6 and 4 μM HGFR inhibitor crizotinib for 24 h. The apoptotic and necrotic cells were quantified by fluorescein annexin V-FITC/PI double labeling. […] Cell invasion was assessed by a Transwell assay with matrigel after 24 h.

HCT116 cells = assay: Apoptosis assay, annexin V-FITC/PI double labeling, HCT116; type: cell-based, human; conditions: 100 μg/ml 24 h, FIG. 7B
Experimental: FIGS. 7A to 7G. EpAb2-6 binds EpEX and induces apoptosis by F(ab′)2 and inhibits regulated intramembrane proteolysis (RIP) activation and HGFR signaling. (FIG. 7A) Binding affinity of IgG EpAb2-6 (mouse) and F(ab′)2 to EpEX-His (1 μg/ml) coated overnight was checked using ELISA (OD450). (FIG. 7B) HCT116 cells were treated with 100 μg/ml control IgG, Fc, or F(ab′)2 of EpAb2-6 for 24 h. The apoptotic and necrotic cells were quantified by fluorescein annexin V-FITC/PI double labeling. (FIG. 7C) HCT116 and HT29 cells were treated with 10 μg/ml control IgG, MT201, humanized EpAb2-6 (hEpAb2-6) or mouse hybridoma EbAb2-6 (mEpAb2-6) for 24 h. The apoptotic and necrotic cells were quantified by fluorescein annexin V-FITC/PI double labeling. (FIG. 7D) HCT116 cells were treated with 10 μg/ml control IgG, MT201, hEpAb2-6 or mEpAb2-6 for 16 h, followed by treatment with EpEX-His (50 nM) for 15 min. Levels of phosphorylated HGFR, AKT, and ERK, and (FIG. 7E) RIP proteins ADAM17 and presenilin 2 were examined by Western blotting. Anti-EpCAM antibody and crizotinib coordinately induces apoptosis in colon cancer cells. (FIG. 7F) HCT116 and HT29 cells were treated with 10 μg/ml NMIgG or EpAb2-6 and 4 μM HGFR inhibitor crizotinib for 24 h. The apoptotic and necrotic cells were quantified by fluorescein annexin V-FITC/PI double labeling. (FIG. 7G) HCT116 and HT29 cells were treated with 10 μg/ml NMIgG or EpAb2-6 and 10 μM HGFR inhibitor crizotinib. Cell invasion was assessed by a Transwell assay with matrigel after 24 h.
Cells were seeded and treated with 10 μg/ml mAb or inhibitor for 6 h; an unrelated mouse myeloma immunoglobulin used at appropriate dilution served as the IgG2a (Invitrogen #02-6200) isotype control. Apoptotic cells were detected using Annexin V-FITC and PI, and were analyzed using a flow cytometer (BD Immmunocytometry Systems). Early apoptosis was measured with the Annexin V-FITC Apoptosis Detection kit II (BD Pharmingen). Late apoptotic nuclei were detected with propidium iodide (PI) staining.

[4] = molecular target: T5, EpCAM wild-type (expressed in HEK293T cells, FIG. 8D-8G) (human, UniProt P16422 24-314); assay: immunofluorescence, flow cytometry and cellular ELISA on transfected HEK293T cells (FIG. 8E-8G)
T5 sequence: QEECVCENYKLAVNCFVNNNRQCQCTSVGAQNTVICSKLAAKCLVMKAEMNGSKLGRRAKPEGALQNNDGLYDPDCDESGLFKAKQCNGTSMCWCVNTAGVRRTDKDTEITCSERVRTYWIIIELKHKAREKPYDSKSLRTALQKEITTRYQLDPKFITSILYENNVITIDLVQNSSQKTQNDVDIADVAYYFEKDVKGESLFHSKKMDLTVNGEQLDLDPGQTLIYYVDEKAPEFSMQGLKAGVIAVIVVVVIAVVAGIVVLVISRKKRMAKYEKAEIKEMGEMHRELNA

[5] = molecular target: B7; assay: Western blotting, flow cytometry and immunofluorescence on transfected HEK293T cells (title of the legend, FIG. 8A-8C)
[6] = molecular target: B2; assay: ELISA on coated EpEX-His (1 µg/ml) (title of the legend, FIG. 7A)
[7] = molecular target: T6, endogenous HGFR (HCT116 and HT29 cells) (human, UniProt P08581 25-1390); assay: co-IP of endogenous proteins after DTSSP cross-linking, HCT116 and HT29 cells (FIG. 1A)
T6 construct: whole, on cells; also called c-MET; hepatocyte growth factor receptor

[8] = molecular target: T3, HGFRECD-c-Myc (extracellular domain of …); assay: co-IP from HEK293T cells overexpressing EpCAM-V5 and HGFRECD-c-Myc (FIG. 1B)
[9] = molecular target: T3, HGFRECD-c-Myc (extracellular domain of …); assay: co-IP with anti-c-Myc from transfected HEK293T cells, Western blotting (FIG. 1G)
[10] = molecular target: T1, HGFR-His recombinant protein; assay: ELISA, HGFR-His added to plates coated with mutant-Fc (1 µg/ml) (FIG. 1H)
[11] = molecular target: T3, HGFRECD-c-Myc (extracellular domain of …); assay: co-IP from transfected HEK293T cells, Western blotting (FIG. 1F)

T3 sequence (P08581 25-932): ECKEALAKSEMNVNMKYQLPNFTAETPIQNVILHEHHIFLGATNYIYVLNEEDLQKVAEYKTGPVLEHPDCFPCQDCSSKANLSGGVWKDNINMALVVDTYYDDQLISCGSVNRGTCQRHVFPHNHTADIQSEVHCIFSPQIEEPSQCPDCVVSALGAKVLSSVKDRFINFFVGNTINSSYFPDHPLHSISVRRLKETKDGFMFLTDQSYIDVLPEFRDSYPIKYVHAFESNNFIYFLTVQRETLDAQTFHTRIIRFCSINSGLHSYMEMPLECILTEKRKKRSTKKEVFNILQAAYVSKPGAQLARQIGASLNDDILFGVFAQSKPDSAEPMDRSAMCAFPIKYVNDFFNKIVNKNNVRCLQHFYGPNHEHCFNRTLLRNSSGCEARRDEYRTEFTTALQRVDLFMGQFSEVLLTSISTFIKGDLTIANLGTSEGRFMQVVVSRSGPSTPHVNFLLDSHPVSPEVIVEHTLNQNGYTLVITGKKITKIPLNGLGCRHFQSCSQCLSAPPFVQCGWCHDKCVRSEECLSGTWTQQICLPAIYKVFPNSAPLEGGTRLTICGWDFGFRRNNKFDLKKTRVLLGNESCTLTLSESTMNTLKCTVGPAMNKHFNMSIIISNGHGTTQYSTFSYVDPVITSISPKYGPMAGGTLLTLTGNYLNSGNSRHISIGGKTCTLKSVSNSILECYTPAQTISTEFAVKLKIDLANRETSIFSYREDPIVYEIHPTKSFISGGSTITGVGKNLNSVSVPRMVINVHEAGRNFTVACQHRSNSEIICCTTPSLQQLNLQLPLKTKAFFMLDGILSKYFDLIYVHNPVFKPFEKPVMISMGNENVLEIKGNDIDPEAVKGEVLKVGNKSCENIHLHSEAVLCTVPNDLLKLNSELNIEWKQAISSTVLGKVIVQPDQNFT
T1 sequence (P08581 25-932): as above
T6 sequence (P08581 25-1390): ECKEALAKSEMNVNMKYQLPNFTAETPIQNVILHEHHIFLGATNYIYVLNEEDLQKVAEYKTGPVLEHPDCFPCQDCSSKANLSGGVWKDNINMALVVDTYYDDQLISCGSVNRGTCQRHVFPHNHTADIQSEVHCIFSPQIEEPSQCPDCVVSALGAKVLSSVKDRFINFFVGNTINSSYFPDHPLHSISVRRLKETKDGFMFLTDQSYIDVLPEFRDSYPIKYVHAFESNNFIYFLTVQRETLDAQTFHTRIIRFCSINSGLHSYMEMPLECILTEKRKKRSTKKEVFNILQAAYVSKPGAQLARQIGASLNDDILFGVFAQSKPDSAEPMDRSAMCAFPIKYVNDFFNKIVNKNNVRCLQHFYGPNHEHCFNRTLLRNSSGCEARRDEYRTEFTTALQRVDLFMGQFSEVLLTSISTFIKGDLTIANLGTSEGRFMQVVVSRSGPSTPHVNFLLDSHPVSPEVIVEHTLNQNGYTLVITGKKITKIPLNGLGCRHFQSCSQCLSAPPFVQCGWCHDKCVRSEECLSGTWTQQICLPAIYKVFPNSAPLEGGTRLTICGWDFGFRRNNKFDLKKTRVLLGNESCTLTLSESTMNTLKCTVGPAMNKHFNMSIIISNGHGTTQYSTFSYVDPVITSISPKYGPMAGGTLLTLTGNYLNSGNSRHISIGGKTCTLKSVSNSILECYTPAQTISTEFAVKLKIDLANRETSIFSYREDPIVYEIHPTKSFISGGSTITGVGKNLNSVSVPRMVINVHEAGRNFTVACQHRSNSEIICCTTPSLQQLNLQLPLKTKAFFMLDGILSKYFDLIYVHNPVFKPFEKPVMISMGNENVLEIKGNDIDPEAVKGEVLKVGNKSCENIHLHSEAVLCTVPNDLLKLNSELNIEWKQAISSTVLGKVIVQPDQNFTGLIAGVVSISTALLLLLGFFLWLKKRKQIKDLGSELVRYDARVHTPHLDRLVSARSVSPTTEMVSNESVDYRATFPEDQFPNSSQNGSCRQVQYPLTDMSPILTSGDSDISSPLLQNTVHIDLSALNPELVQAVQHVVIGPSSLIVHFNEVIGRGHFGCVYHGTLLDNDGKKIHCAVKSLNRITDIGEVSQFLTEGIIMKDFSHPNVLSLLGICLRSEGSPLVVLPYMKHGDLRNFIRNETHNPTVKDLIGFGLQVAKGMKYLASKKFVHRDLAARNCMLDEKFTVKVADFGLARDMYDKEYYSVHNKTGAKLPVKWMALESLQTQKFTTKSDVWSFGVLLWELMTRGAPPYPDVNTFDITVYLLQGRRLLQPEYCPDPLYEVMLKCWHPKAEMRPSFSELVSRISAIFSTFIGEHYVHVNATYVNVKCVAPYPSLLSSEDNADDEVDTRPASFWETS
T2 sequence (P08581 25-932): as the sequence (P08581 25-932) above

B1: EpEX-Fc (Fc fusion)
chain: QEECVCENYKLAVNCFVNNNRQCQCTSVGAQNTVICSKLAAKCLVMKAEMNGSKLGRRAKPEGALQNNDGLYDPDCDESGLFKAKQCNGTSMCWCVNTAGVRRTDKDTEITCSERVRTYWIIIELKHKAREKPYDSKSLRTALQKEITTRYQLDPKFITSILYENNVITIDLVQNSSQKTQNDVDIADVAYYFEKDVKGESLFHSKKMDLTVNGEQLDLDPGQTLIYYVDEKAPEFSMQGLK
notes: also called recombinant EpEX-Fc; not shown: Fc
binding result [1]: binds

Molecule: B2
binding result (HGFR-Fc protein): binds
binding result [2]: binds

B3: F(ab′)2 of EpAb2-6 (antibody, V domains shown)
VH: VKLQESGPELKKPGETVKISCKASGYTFTDYSMHWVKQAPGKGLKWMGWINTETGEPTYADDFKGRFAFSLETSASTAYLQINNLKNEDTATYFCARTAVYWGQGTTVTVSS
VL: DIQMTQSPSSLSASLGERVSLTCRASQEISVSLSWLQQEPDGTIKRLIYATSTLDSGVPKRFSGSRSGSDYSLTISSLESEDFVDYYCLQYASYPWTFGGGTKLEIKR
notes: F(ab′)2 fragment of mouse EpAb2-6; also called divalent antibody fragments F(ab′)2 of EpAb2-6
binding result [3]: binds

B4: F(ab′)2 of EpAb2-6: divalent antibody fragments F(ab′)2 of EpAb2-6 (antibody, V domains shown)
VH: VKLQESGPELKKPGETVKISCKASGYTFTDYSMHWVKQAPGKGLKWMGWINTETGEPTYADDFKGRFAFSLETSASTAYLQINNLKNEDTATYFCARTAVYWGQGTTVTVSS
VL: DIQMTQSPSSLSASLGERVSLTCRASQEISVSLSWLQQEPDGTIKRLIYATSTLDSGVPKRFSGSRSGSDYSLTISSLESEDFVDYYCLQYASYPWTFGGGTKLEIKRADAAPTVS
binding to EpEX (EpEX-His): bind to EpEX
apoptosis (HCT116 cells): induce apoptosis in colon cancer cells

Molecule: B7
binding result [8]: binds

Other lines, results leading:

binding result [4]: binds
binding result [5]: binds
binding result [6]: binds
B5: EpAb2-6 (mouse monoclonal IgG) (antibody, V domains shown)
VH: VKLQESGPELKKPGETVKISCKASGYTFTDYSMHWVKQAPGKGLKWMGWINTETGEPTYADDFKGRFAFSLETSASTAYLQINNLKNEDTATYFCARTAVYWGQGTTVTVSS
VL: DIQMTQSPSSLSASLGERVSLTCRASQEISVSLSWLQQEPDGTIKRLIYATSTLDSGVPKRFSGSRSGSDYSLTISSLESEDFVDYYCLQYASYPWTFGGGTKLEIKR
notes: Mouse hybridoma IgG; also called mouse EpAb2-6; mEpAb2-6

binding result [7]: binds
B6: endogenous EpCAM (HCT116 and HT29 cells) (other)
chain: QEECVCENYKLAVNCFVNNNRQCQCTSVGAQNTVICSKLAAKCLVMKAEMNGSKLGRRAKPEGALQNNDGLYDPDCDESGLFKAKQCNGTSMCWCVNTAGVRRTDKDTEITCSERVRTYWIIIELKHKAREKPYDSKSLRTALQKEITTRYQLDPKFITSILYENNVITIDLVQNSSQKTQNDVDIADVAYYFEKDVKGESLFHSKKMDLTVNGEQLDLDPGQTLIYYVDEKAPEFSMQGLKAGVIAVIVVVVIAVVAGIVVLVISRKKRMAKYEKAEIKEMGEMHRELNA
notes: Endogenous protein of human colon cancer cell lines, immunoprecipitated from lysates; also called epithelial cell adhesion molecule

binding result [9]: no binding
B8: EpEXΔEGFI+II-His (ligand)
chain: QEESKLAAKSERVRTYWIIIELKHKAREKPYDSKSLRTALQKEITTRYQLDPKFITSILYENNVITIDLVQNSSQKTQNDVDIADVAYYFEKDVKGESLFHSKKMDLTVNGEQLDLDPGQTLIYYVDEKAPEFSMQGLK
notes: EpEX lacking aa 27-59 and 66-135; also called EGF like-domain deletion mutant EpEX-His; soluble EpEX mutant protein; not shown: His tag

binding result [10]: no binding (tested: 2 µg/ml)
B9: EpEXΔEGFI+II-Fc (Fc fusion)
chain: QEESKLAAKSERVRTYWIIIELKHKAREKPYDSKSLRTALQKEITTRYQLDPKFITSILYENNVITIDLVQNSSQKTQNDVDIADVAYYFEKDVKGESLFHSKKMDLTVNGEQLDLDPGQTLIYYVDEKAPEFSMQGLK
notes: EpEX lacking aa 27-59 and 66-135, coated on ELISA plates at 1 µg/ml; also called EpEXΔEGFI+II mutant protein; EGF like-domain deletion mutant-Fc; not shown: Fc

binding result [11]: no binding
B10: EpCAMΔEGFI+II-V5 (other)
chain: QEESKLAAKSERVRTYWIIIELKHKAREKPYDSKSLRTALQKEITTRYQLDPKFITSILYENNVITIDLVQNSSQKTQNDVDIADVAYYFEKDVKGESLFHSKKMDLTVNGEQLDLDPGQTLIYYVDEKAPEFSMQGLKAGVIAVIVVVVIAVVAGIVVLVISRKKRMAKYEKAEIKEMGEMHRELNA
notes: also called both domain-deleted mutants; not shown: V5 tag
